# Measurements: publication PMC8809517, “Cofactor-independent RNA editing by a synthetic S-type PPR protein”
# T1: 9S-S2 PPR (synthetic construct)
# T1 chain: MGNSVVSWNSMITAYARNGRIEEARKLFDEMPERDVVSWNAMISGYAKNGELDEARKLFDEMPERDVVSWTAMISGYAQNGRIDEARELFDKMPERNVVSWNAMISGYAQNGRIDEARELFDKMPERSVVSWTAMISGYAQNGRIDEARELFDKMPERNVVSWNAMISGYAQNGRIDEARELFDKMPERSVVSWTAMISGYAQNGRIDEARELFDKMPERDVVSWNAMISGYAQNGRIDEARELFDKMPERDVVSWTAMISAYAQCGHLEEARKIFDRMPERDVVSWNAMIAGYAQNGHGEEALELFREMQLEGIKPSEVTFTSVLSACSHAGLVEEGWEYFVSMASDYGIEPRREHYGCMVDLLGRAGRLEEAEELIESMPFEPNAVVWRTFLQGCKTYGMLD
# T2: 9P-S2 (synthetic construct)
# T2 chain: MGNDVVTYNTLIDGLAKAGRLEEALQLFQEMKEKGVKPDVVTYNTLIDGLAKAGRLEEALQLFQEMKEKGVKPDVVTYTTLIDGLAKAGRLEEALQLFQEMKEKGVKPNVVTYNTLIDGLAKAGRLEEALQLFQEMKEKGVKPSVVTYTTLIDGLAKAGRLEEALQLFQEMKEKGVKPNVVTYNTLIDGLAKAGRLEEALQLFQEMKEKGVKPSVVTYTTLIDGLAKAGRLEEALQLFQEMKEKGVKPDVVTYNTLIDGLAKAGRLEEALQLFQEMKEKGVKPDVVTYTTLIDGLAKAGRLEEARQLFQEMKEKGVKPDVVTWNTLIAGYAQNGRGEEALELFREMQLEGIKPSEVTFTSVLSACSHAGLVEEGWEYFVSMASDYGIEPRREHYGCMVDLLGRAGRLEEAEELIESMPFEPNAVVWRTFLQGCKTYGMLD
# How the values were obtained:
# [1] = system: TRX-9S-S2 (synthetic construct (Selaginella-type S motif consensus)); assay: ITC; details: HRP: 50 mM Tris pH 8, 150 mM NaCl, 1 mM bME, 50 ug/ml BSA, 3 ug/ml yeast RNA, 0.5% heparin, 2 nM RNA; ITC (25 C) and FP: Tris pH 8, 200 mM KCl, 5% glycerol …
# [2] = system: TRX-9P-S2 (synthetic construct); assay: ITC; details: HRP: 50 mM Tris pH 8, 150 mM NaCl, 1 mM bME, 50 ug/ml BSA, 3 ug/ml yeast RNA, 0.5% heparin, 2 nM RNA; ITC (25 C) and FP: Tris pH 8, 200 mM KCl, 5% glycerol …
# [3] = system: TRX-9S-E2 (synthetic construct); assay: MST; details: HRP: 50 mM Tris pH 8, 150 mM NaCl, 1 mM bME, 50 ug/ml BSA, 3 ug/ml yeast RNA, 0.5% heparin, 2 nM RNA; ITC (25 C) and FP: Tris pH 8, 200 mM KCl, 5% glycerol …
# [4] = system: GFP-9S motif 4 ID (synthetic construct); assay: HRP pulldown; details: lysate; HRP: 50 mM Tris pH 8, 150 mM NaCl, 1 mM bME, 50 ug/ml BSA, 3 ug/ml yeast RNA, 0.5% heparin, 2 nM RNA; ITC (25 C) and FP: Tris pH 8, 200 mM KCl, 5% glycerol …
# [5] = system: GFP-9S (synthetic construct); assay: HRP pulldown; details: HRP: 50 mM Tris pH 8, 150 mM NaCl, 1 mM bME, 50 ug/ml BSA, 3 ug/ml yeast RNA, 0.5% heparin, 2 nM RNA; ITC (25 C) and FP: Tris pH 8, 200 mM KCl, 5% glycerol …
# [6] = system: GFP-9S motif 4 TD (synthetic construct); assay: HRP pulldown; details: HRP: 50 mM Tris pH 8, 150 mM NaCl, 1 mM bME, 50 ug/ml BSA, 3 ug/ml yeast RNA, 0.5% heparin, 2 nM RNA; ITC (25 C) and FP: Tris pH 8, 200 mM KCl, 5% glycerol …
# [7] = system: TRX-9S-S2 (synthetic construct (Selaginella-type S motif consensus)); assay: HRP pulldown; details: HRP: 50 mM Tris pH 8, 150 mM NaCl, 1 mM bME, 50 ug/ml BSA, 3 ug/ml yeast RNA, 0.5% heparin, 2 nM RNA; ITC (25 C) and FP: Tris pH 8, 200 mM KCl, 5% glycerol …
# [8] = system: TRX-AviTag-9S-S2 (synthetic construct); assay: HRP pulldown; details: HRP: 50 mM Tris pH 8, 150 mM NaCl, 1 mM bME, 50 ug/ml BSA, 3 ug/ml yeast RNA, 0.5% heparin, 2 nM RNA; ITC (25 C) and FP: Tris pH 8, 200 mM KCl, 5% glycerol …
# [9] = system: TRX-9P-S2 (synthetic construct); assay: HRP pulldown; details: HRP: 50 mM Tris pH 8, 150 mM NaCl, 1 mM bME, 50 ug/ml BSA, 3 ug/ml yeast RNA, 0.5% heparin, 2 nM RNA; ITC (25 C) and FP: Tris pH 8, 200 mM KCl, 5% glycerol …
# [10] = system: GFP-9S motif 4 KD (synthetic construct); assay: HRP pulldown; details: lysate, HRP: 50 mM Tris pH 8, 150 mM NaCl, 1 mM bME, 50 ug/ml BSA, 3 ug/ml yeast RNA, 0.5% heparin, 2 nM RNA, ITC (25 C) and FP: Tris pH 8, 200 mM KCl, 5% glycerol …
# [11] = system: GFP-9S motif 4 LD (synthetic construct); assay: HRP pulldown; details: lysate, HRP: 50 mM Tris pH 8, 150 mM NaCl, 1 mM bME, 50 ug/ml BSA, 3 ug/ml yeast RNA, 0.5% heparin, 2 nM RNA, ITC (25 C) and FP: Tris pH 8, 200 mM KCl, 5% glycerol …
# [12] = system: TRX-9S-S2 (synthetic construct (Selaginella-type S motif consensus)); assay: fluorescence polarization; details: HRP: 50 mM Tris pH 8, 150 mM NaCl, 1 mM bME, 50 ug/ml BSA, 3 ug/ml yeast RNA, 0.5% heparin, 2 nM RNA; ITC (25 C) and FP: Tris pH 8, 200 mM KCl, 5% glycerol …
# 9S-S2 PPR [13] = molecular target: T1, 9S-S2 PPR; assay: fluorescence polarization; HRP: 50 mM Tris pH 8, 150 mM NaCl, 1 mM beta-mercaptoethanol, 50 ug/ml BSA, 3 ug/ml yeast RNA, 0.5% heparin; ITC and FP: Tris pH 8, 200 mM KCl, 5% glycerol; MST: 50 mM Tris pH 8, 200 mM NaCl, 1 mM DTT, BSA, heparin, 0.05% Tween 20; details: protein: recombinant; tags: N-terminal TRX-His; label: fluorescein
# 9S-S2 PPR [14] = molecular target: T1, 9S-S2 PPR; assay: isothermal titration calorimetry; HRP: 50 mM Tris pH 8, 150 mM NaCl, 1 mM beta-mercaptoethanol, 50 ug/ml BSA, 3 ug/ml yeast RNA, 0.5% heparin; ITC and FP: Tris pH 8, 200 mM KCl, 5% glycerol; MST: 50 mM Tris pH 8, 200 mM NaCl, 1 mM DTT, BSA, heparin, 0.05% Tween 20; details: protein: recombinant; tags: N-terminal TRX-His
# 9P-S2 = molecular target: T2, 9P-S2; assay: as above; details: protein: recombinant; tags: N-terminal TRX-His
# 9S-S2 PPR [15] = molecular target: T1, 9S-S2 PPR; assay: high-throughput RNA pulldown on Ni-NTA beads; HRP: 50 mM Tris pH 8, 150 mM NaCl, 1 mM beta-mercaptoethanol, 50 ug/ml BSA, 3 ug/ml yeast RNA, 0.5% heparin; ITC and FP: Tris pH 8, 200 mM KCl, 5% glycerol; MST: 50 mM Tris pH 8, 200 mM NaCl, 1 mM DTT, BSA, heparin, 0.05% Tween 20; details: protein: recombinant; tags: N-terminal TRX-His; label: 5' Cy5
# [16] = Kd above 200 nM called unreliable
molecule,measurement,setting,value
UUACACGUG [rpoA footprint (ITC)],Kd,[1],0.048 µM
same,Kd,[2],0.239 µM
AUUACACGUGA [Cy5-rpoA],Kd,[3],0.0068 µM
same,Kd,[4],0.153 µM
same,Kd,[5],0.012 µM
same,Kd,[6],0.28 µM
same,Kd,[7],0.0064 µM
same,Kd,[8],0.0053 µM
same,Kd,[9],0.068 µM
same,Kd,[10],0.189 µM
same,Kd,[11]; [16],0.214 µM
AUUAAACGUGA [IR-rpoA-A],Kd,[4],0.175 µM
same,Kd,[10]; [16],0.409 µM
same,Kd,[11]; [16],0.452 µM
AUUAGACGUGA [Cy5-rpoA-G],Kd,[4],0.127 µM
same,Kd,[6],0.014 µM
same,Kd,[10]; [16],0.315 µM
same,Kd,[11],0.183 µM
AUUAUACGUGA [IR-rpoA-U],Kd,[4],0.0535 µM
same,Kd,[10]; [16],0.279 µM
same,Kd,[11],0.0663 µM
AUUACACGUG [rpoA (FP)],Kd,[12],0.0076 µM
AUUACACGUG (ssRNA) [rpoA (FP)],Kd,9S-S2 PPR [13],0.0076 µM
UUACACGUG (ssRNA) [rpoA footprint (ITC)],Kd,9S-S2 PPR [14],0.048 µM
same,Kd,9P-S2,0.239 µM
CAGCAACAGAAGCCCAAGCUCAUGGA (ssRNA) [Cy5-clpP (clpP1)],binding result,9S-S2 PPR [15],no binding
